This note sets out measurements from article PMC9328677.

The target in this data set is T1, APLF acidic domain (APLFAD) WT (Homo sapiens, UniProt Q8IW19 450-511).
T1 sequence: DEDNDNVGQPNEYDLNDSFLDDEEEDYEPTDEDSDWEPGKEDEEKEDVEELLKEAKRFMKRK
Put plainly: EMSA (native PAGE, cross-linked); APLFAD alone, no histones; Native PAGE EMSA with cross-linking; EMSA and NAQ buffer, salt and temperature not in material (general assay buffer 25 mM NaPi pH 7.0, 300 mM NaCl). The settings on record: protein: recombinant; tags: TAMRA-labelled; His-GST or His-SUMO fusion for expression (TEV cleaved; SUMO may be retained); chain copies: 2; blunt. (In EMSA bound probe runs differently from free probe, usually more slowly.)

B1: 49-bp DNA, centre of 601 (dsDNA)
DNA 1: GCACCGCTTAAACGCACGTACGCGCTGTCCCCCGCGTTTTAACCGCCAA
DNA 2: TTGGCGGTTAAAACGCGGGGGACAGCGCGTACGTGCGTTTAAGCGGTGC
Turning to B1, the binding result was “no binding”.
